From patent publication US20190248888A1, “METHODS OF LOWERING BLOOD GLUCOSE LEVELS” (Regeneron Pharmaceuticals, Inc., priority 2016, published 2019)

System: isolated pancreatic islets from mice
Test: RNAseq gene expression in isolated pancreatic islets of GCGR antibody treated mice (Table 5)
Format: in vivo, mouse
Conditions: isolated islets, 10 mg/kg, 21 days
Method: Mouse islets were isolated by density gradient separation after perfusing pancreas with Liberase TL (Roche, Indianapolis) through the common bile duct. Following a 13 min digestion at 37° C., the pancreas solution was washed and filtered through a 400-μm wire mesh strainer and islets were separated by Histopaque gradient centrifugation (Sigma-Aldrich). Isolated islets were cultured overnight in RPMI-1640 medium supplemented with 10% (v/v) FBS, 10 mM HEPES, 50 μM β-mercaptoethanol, 1.0 mM sodium-pyruvate, 100 U/mL penicillin and 100 μg/mL streptomycin at 37° C. with a 5% CO2 in air atmosphere.
Total RNA was purified from all samples using MagMAX™-96 for Microarrays Total RNA Isolation Kit (Ambion by Life Technologies) according to manufacturer's specifications. Genomic DNA was removed using MagMAX™Turbo™DNase Buffer and TURBO DNase from the MagMAX kit listed above (Ambion by Life Technologies). mRNA was purified from total RNA using Dynabeads® mRNA Purification Kit (Invitrogen). Strand-specific RNA-seq libraries were prepared using ScriptSeq™ mRNA-Seq Library Preparation Kit (Epicentre). Twelve-cycle PCR was performed to amplify libraries. Sequencing was performed on Illumina HiSeq®2000 (Illumina) by multiplexed single-read run with 33 cycles.
Raw sequence data (BCL files) were converted to FASTQ format via Illumina Casava 1.8.2. Reads were decoded based on their barcodes and read quality was evaluated with FastQC (http://www.bioinformatics.babraham.ac.uk/projects/fastqc/). Reads were mapped to the mouse transcriptome (NCBI GRCh37) using CLC Genomics Workbench Version 7.0 (CLCbio) or TopHat2 (Version 2.0.10) allowing two mismatches. Reads mapped to the exons of a gene were summed at the gene level. To identify differentially expressed genes, the statistical significance (p-value) of the differential expressions was assessed with DESeq package (version 1.6 or 2.0). […]

B1: α-GCGR: potent monoclonal GCGR blocking antibody, HCVR/LCVR SEQ ID NOs: 86/88 (antibody, V domains shown)
VH: EVQLVESGGGLVQPGGSLRLSCAASGFTFSNYLMNWVRQAPGKGLEWLANIQEDGIEKYYVDSVKGRFTISRDNAKNSLYLQMNSLRAEDTAVYYCAREPSHYDILTGYDYYYGMDVWGQGTTVTVS
VL: DIQMTQSPSSLSASVGDRVTITCRASQGIRNDLGWYQQKPGKAPKRLIYAASSLQSGVPSRFSGSGSGTEFILTVSSLQPEDFATYYCLQYNSNPFTFGPGTKVDIK
- 1700086L19Rik RPKM (gene 1700086L19Rik): 119.24 RPKM
- 1810011O10Rik RPKM (gene 1810011O10Rik): 5.88 RPKM
- 1810041L15Rik RPKM (gene 1810041L15Rik): 3.14 RPKM
- 4930539E08Rik RPKM (gene 4930539E08Rik): 5.64 RPKM
- 9030617O03Rik RPKM (gene 9030617O03Rik): 5.31 RPKM
- AW551984 RPKM (gene AW551984): 5.27 RPKM
- Acta1 RPKM (gene Acta1): 1.05 RPKM
- Agpat4 RPKM (gene Agpat4): 4.89 RPKM
- Agt RPKM (gene Agt): 22.33 RPKM
- Ang RPKM (gene Ang): 69.38 RPKM
- Ano1 RPKM (gene Ano1): 1.26 RPKM
- Anxa3 RPKM (gene Anxa3): 11.67 RPKM
- Anxa13 RPKM (gene Anxa13): 0.65 RPKM
- Apoa2 RPKM (gene Apoa2): 10.76 RPKM
- Apod RPKM (gene Apod): 2.75 RPKM
- Apol7a RPKM (gene Apol7a): 0.28 RPKM
- Arg1 RPKM (gene Arg1): 59.62 RPKM
- Arx RPKM (gene Arx): 6.42 RPKM
- Asb11 RPKM (gene Asb11): 1.00 RPKM
- Avpr1b RPKM (gene Avpr1b): 4.45 RPKM
- Basp1 RPKM (gene Basp1): 11.31 RPKM
- Blnk RPKM (gene Blnk): 3.87 RPKM
- Bok RPKM (gene Bok): 1.31 RPKM
- Car9 RPKM (gene Car9): 0.79 RPKM
- Cdc42ep1 RPKM (gene Cdc42ep1): 1.77 RPKM
- Clec2d RPKM (gene Clec2d): 9.10 RPKM
- Clic6 RPKM (gene Clic6): 0.26 RPKM
- Clu RPKM (gene Clu): 481.69 RPKM
- Cnih2 RPKM (gene Cnih2): 1.98 RPKM
- Cobl RPKM (gene Cobl): 2.27 RPKM
- Ctse RPKM (gene Ctse): 1.73 RPKM
- Dbpht2 RPKM (gene Dbpht2): 27.59 RPKM
- Dmbt1 RPKM (gene Dmbt1): 10.80 RPKM
- Dpp6 RPKM (gene Dpp6): 8.00 RPKM
- Drc1 RPKM (gene Drc1): 4.67 RPKM
- Eda2r RPKM (gene Eda2r): 1.98 RPKM
- Eef1a2 RPKM (gene Eef1a2): 35.85 RPKM
- Ehf RPKM (gene Ehf): 10.90 RPKM
- Etv1 RPKM (gene Etv1): 33.99 RPKM
- F5 RPKM (gene F5): 1.71 RPKM
- Ffar4 RPKM (gene Ffar4): 5.88 RPKM
- Fgd3 RPKM (gene Fgd3): 0.83 RPKM
- Fgl2 RPKM (gene Fgl2): 37.91 RPKM
- Gamt RPKM (gene Gamt): 0.58 RPKM
- Gbp8 RPKM (gene Gbp8): 7.39 RPKM
- Gbp9 RPKM (gene Gbp9): 4.03 RPKM
- Gc RPKM (gene Gc): 153.00 RPKM
- Gcg RPKM (gene Gcg): 63254.16 RPKM
- Gcnt4 RPKM (gene Gcnt4): 3.02 RPKM
- Gfra1 RPKM (gene Gfra1): 3.43 RPKM
- Gfra3 RPKM (gene Gfra3): 8.18 RPKM
- Gm609 RPKM (gene Gm609): 6.28 RPKM
- Gm20554 RPKM (gene Gm20554): 2.33 RPKM
- Gng2 RPKM (gene Gng2): 7.35 RPKM
- Gpr119 RPKM (gene Gpr119): 15.35 RPKM
- Gpx3 RPKM (gene Gpx3): 638.48 RPKM
- Hspb1 RPKM (gene Hspb1): 10.32 RPKM
- Ifih1 RPKM (gene Ifih1): 10.68 RPKM
- Igsf23 RPKM (gene Igsf23): 0.40 RPKM
- Irx1 RPKM (gene Irx1): 5.96 RPKM
- Irx2 RPKM (gene Irx2): 8.92 RPKM
- Itgb4 RPKM (gene Itgb4): 1.65 RPKM
- Jchain RPKM (gene Jchain): 74.91 RPKM
- Kcna2 RPKM (gene Kcna2): 0.81 RPKM
- Kcnab3 RPKM (gene Kcnab3): 2.28 RPKM
- Kcnf1 RPKM (gene Kcnf1): 0.86 RPKM
- Kcnk3 RPKM (gene Kcnk3): 8.14 RPKM
- Klb RPKM (gene Klb): 4.59 RPKM
- Klhl13 RPKM (gene Klhl13): 5.34 RPKM
- Krt19 RPKM (gene Krt19): 26.52 RPKM
- Krt20 RPKM (gene Krt20): 0.65 RPKM
- Krt23 RPKM (gene Krt23): 2.17 RPKM
- Lamb3 RPKM (gene Lamb3): 1.16 RPKM
- Mafb RPKM (gene Mafb): 24.19 RPKM
- Mamld1 RPKM (gene Mamld1): 5.64 RPKM
- Mapk13 RPKM (gene Mapk13): 2.86 RPKM
- Matn2 RPKM (gene Matn2): 2.36 RPKM
- Ndst4 RPKM (gene Ndst4): 6.30 RPKM
- Necab2 RPKM (gene Necab2): 7.29 RPKM
- Nefm RPKM (gene Nefm): 6.35 RPKM
- Npr1 RPKM (gene Npr1): 3.07 RPKM
- Nptxr RPKM (gene Nptxr): 4.03 RPKM
- Nsg2 RPKM (gene Nsg2): 3.49 RPKM
- Ntn1 RPKM (gene Ntn1): 0.65 RPKM
- Nudt11 RPKM (gene Nudt11): 8.49 RPKM
- Nyap1 RPKM (gene Nyap1): 3.82 RPKM
- Ocrl RPKM (gene Ocrl): 37.04 RPKM
- Oit1 RPKM (gene Oit1): 4.78 RPKM
- Olfm3 RPKM (gene Olfm3): 3.59 RPKM
- Oxtr RPKM (gene Oxtr): 7.25 RPKM
- Pdk4 RPKM (gene Pdk4): 25.17 RPKM
- Peg10 RPKM (gene Peg10): 17.17 RPKM
- Pla2g2d RPKM (gene Pla2g2d): 5.69 RPKM
- Ptf1a RPKM (gene Ptf1a): 0.52 RPKM
- Ptprd RPKM (gene Ptprd): 4.67 RPKM
- Ptprg RPKM (gene Ptprg): 3.12 RPKM
- Rasd1 RPKM (gene Rasd1): 10.12 RPKM
- Rbms3 RPKM (gene Rbms3): 2.38 RPKM
- Rbp4 RPKM (gene Rbp4): 210.71 RPKM
- Rcn1 RPKM (gene Rcn1): 12.75 RPKM
- Rragb RPKM (gene Rragb): 33.15 RPKM
- Sema3e RPKM (gene Sema3e): 2.28 RPKM
- Serpinb6b RPKM (gene Serpinb6b): 1.59 RPKM
- Serpine2 RPKM (gene Serpine2): 10.10 RPKM
- Serping1 RPKM (gene Serping1): 82.99 RPKM
- Sftpd RPKM (gene Sftpd): 4.65 RPKM
- Sgce RPKM (gene Sgce): 10.55 RPKM
- Sh2d4a RPKM (gene Sh2d4a): 0.65 RPKM
- Sh3bgr RPKM (gene Sh3bgr): 3.39 RPKM
- Slc38a3 RPKM (gene Slc38a3): 0.79 RPKM
- Slc38a5 RPKM (gene Slc38a5): 52.26 RPKM
- Smarca1 RPKM (gene Smarca1): 15.49 RPKM
- Spns2 RPKM (gene Spns2): 0.98 RPKM
- St8sia1 RPKM (gene St8sia1): 2.35 RPKM
- Syt16 RPKM (gene Syt16): 2.26 RPKM
- Tead2 RPKM (gene Tead2): 2.17 RPKM
- Tesc RPKM (gene Tesc): 4.72 RPKM
- Tmsb15b1 RPKM (gene Tmsb15b1): 28.28 RPKM
- Tspan1 RPKM (gene Tspan1): 1.40 RPKM
- Ttr RPKM (gene Ttr): 5356.49 RPKM
- Vnn1 RPKM (gene Vnn1): 0.42 RPKM
- Vwde RPKM (gene Vwde): 5.37 RPKM
- Wfdc16 RPKM (gene Wfdc16): 5.87 RPKM
- Wnk3 RPKM (gene Wnk3): 9.33 RPKM
